Source: patent US20040039175, “Modulation of viral gene expression by engineered zinc finger proteins” (published 2004)

What was measured:
HIV-C = HIV-C (synthetic construct); assay: ELONA; apparent Kd, phage ELISA, Zn2+; details: protein: virion; label: biotin
HIV-D = HIV-D (synthetic construct); assay: ELONA; apparent Kd, phage ELISA, Zn2+; details: protein: virion; label: biotin
6F6 (7N-4/3 six-finger) [1] = molecular target: T1, 6F6 (7N-4/3 six-finger) (synthetic construct); assay: EMSA; almost no affinity; 8 mismatches; details: tags: Promega TNT; label: radiolabel
7N [2] = molecular target: T2, 7N (synthetic construct); assay: EMSA; details: tags: Promega TNT; label: radiolabel
HIV-G = HIV-G (synthetic construct); assay: ELONA; apparent Kd, phage ELISA, Zn2+; details: protein: virion; label: biotin
HIV-F = HIV-F (synthetic construct); assay: ELONA; apparent Kd, phage ELISA, Zn2+; details: protein: virion; label: biotin
6F6 (7N-4/3 six-finger) [3] = molecular target: T1, 6F6 (7N-4/3 six-finger); assay: EMSA; almost no affinity; 11 mismatches; details: tags: Promega TNT; label: radiolabel
HIV-E = HIV-E (synthetic construct); assay: ELONA; apparent Kd, phage ELISA; F3 subsite printed differently in original table; details: protein: virion; label: biotin
6F6 (7N-4/3 six-finger) [4] = molecular target: T1, 6F6 (7N-4/3 six-finger); assay: EMSA; almost no affinity; 3 mismatches; details: tags: Promega TNT; label: radiolabel
7N [5] = molecular target: T2, 7N; assay: EMSA; intact t2 site; details: tags: Promega TNT; label: radiolabel
6F6 (7N-4/3 six-finger) [6] = molecular target: T1, 6F6 (7N-4/3 six-finger); assay: EMSA; affinity relative to 4/3 or 7N alone; details: tags: Promega TNT; label: radiolabel
7N [7] = molecular target: T2, 7N; assay: EMSA; roughly similar apparent Kd to 4/3; details: tags: Promega TNT; label: radiolabel
7N [8] = molecular target: T2, 7N; assay: ELONA; apparent Kd comparable with Zif268, weakest of the three; phage ELISA; details: protein: virion

T1 sequence (chain, as listed by the source): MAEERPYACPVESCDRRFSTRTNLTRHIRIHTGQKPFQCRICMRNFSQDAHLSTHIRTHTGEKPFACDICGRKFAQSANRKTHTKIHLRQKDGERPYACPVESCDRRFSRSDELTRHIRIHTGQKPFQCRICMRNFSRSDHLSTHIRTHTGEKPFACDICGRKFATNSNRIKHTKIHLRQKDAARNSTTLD

B1: HIV-C site (dsDNA)
DNA 1: GATGCTGCAT
DNA 2: ATGCAGCATC
In the case of B1, the Kd (HIV-C) is reported as 13.7 nM.

B2: HIV-D site (dsDNA)
DNA 1: GCAGCTGCTT
DNA 2: AAGCAGCTGC
Binder B2 has a Kd (HIV-D) of 4 nM.

B3: IE110 probe (dsDNA)
DNA 1: TGGGTTCCGGGTATGGTAATGAGTTTCTTC
DNA 2: GAAGAAACTCATTACCATACCCGGAACCCA
B3: no binding (6F6 (7N-4/3 six-finger) [1]); binds (7N [2]).

B4: HIV-G site (dsDNA)
DNA 1: GCTAACTAGG
DNA 2: CCTAGTTAGC
In the case of B4, the Kd (HIV-G) is reported as 40.3 nM.

B5: HIV-F site (dsDNA)
DNA 1: GGAGCTCTCT
DNA 2: AGAGAGCTCC
B5 was tested, and the Kd (HIV-F) was 13.3 nM.

B6: H2B probe (dsDNA)
DNA 1: ATAGAATCGCTTATGCAAATAAGGTGAAGA
DNA 2: TCTTCACCTTATTTGCATAAGCGATTCTAT
B6: no binding (6F6 (7N-4/3 six-finger) [3]).

B7: HIV-E site (dsDNA)
DNA 1: ATCTGAGCCT
DNA 2: AGGCTCAGAT
Work on B7 yielded a Kd (HIV-E) of 36.6 nM.

B8: 68K probe (dsDNA)
DNA 1: CTTCCCGGTTCGGCGGTAATGAGATACGAG
DNA 2: CTCGTATCTCATTACCGCCGAACCGGGAAG
B8: no binding (6F6 (7N-4/3 six-finger) [4]); binds (7N [5]).

B9: T24 probe (dsDNA)
DNA 1: CCGCCGGATCGGGCGGTAATGAGATGCCATG
DNA 2: CATGGCATCTCATTACCGCCCGATCCGGCGG
With B9 the binding signal (6F6 (7N-4/3 six-finger) [6]) was ≥ 25 fold and the binding result (7N [7]) was “binds”.

B10: t2 (dsDNA)
DNA 1: TAATGAGAT
DNA 2: ATCTCATTA
B10 gave a Kd (7N [8]) of ~1 nM.
